Source: patent US20190170753A1 (ICAHN SCHOOL OF MEDICINE AT MOUNT SINAI, published 2019)

Assays:
Experiment in all cases: peptide EIA, 2 ug/mL IgG;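 further: purified mouse IgG binding to individually well-coated synthetic peptides, detected with peroxidase anti-mouse IgG Fc and o-phenylenediamine, IgG incubated at least 1 h at room temperature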
HCV core peptide 34 = target: T1, HCV core peptide 34 (hepatitis C virus, N-terminal biotin; C-terminal amide)
T1 construct: range 67-81
Description: (§1) The coated plates were kept dry in a sealed foil pouch and stored at <10 degrees C. until ready for use. A peptide coated plate for each test antibody was blocked using 3% BSA in PBS with 0.5% Tween 20. The blocked plates were washed with distilled water and a 2 ug/mL solution of purified IgG from each test sample diluted in BSA block solution was added to each peptide coated well of the blocked plate and allowed to incubate at room temperature for at least one hour. Following incubation the plates were washed with distilled water. A 200 ng/mL solution of peroxidase labeled F(ab′)2 fragment goat anti-mouse IgG Fc fragment specific (Jackson Immunoresearch) in BSA block solution was added to all wells and incubated at room temperature for 30 minutes. The plates were washed with distilled water and o-phenylenediamine substrate was used as the chromagen to generate signal. Plates were read at 492 nm and the results were analyzed.

HCV core peptide 75 = target: T2, HCV core peptide 75 (hepatitis C virus, N-terminal biotin; C-terminal amide)
T2 construct: range 149-163
Description: as §1

HCV core peptide 68 = target: T3, HCV core peptide 68 (hepatitis C virus, N-terminal biotin; C-terminal amide)
T3 construct: range 135-149
Description: as §1

HCV core peptide 61 = target: T4, HCV core peptide 61 (hepatitis C virus, N-terminal biotin; C-terminal amide)
T4 construct: range 121-135
Description: as §1

HCV core peptide 70 = HCV core peptide 70 (hepatitis C virus, N-terminal biotin; C-terminal amide)
Description: as §1

HCV core peptide 54 = target: T5, HCV core peptide 54 (hepatitis C virus, HELM PEPTIDE1{[O=C1N[C@H]2[C@H](CS[C@H]2CCCCC(=O)[*:2])N1].S.G.S.G.W.G.P.T.D.P.R.R.R.S.R.N.L.G.K.[am]}$$$$V2.0; SMILES …)
T5 peptide: SGSGWGPTDPRRRSRNLGK
Description: as §1

HCV core peptide 86 = HCV core peptide 86 (hepatitis C virus, N-terminal biotin; C-terminal amide)
Description: as §1

HCV core peptide 40 = target: T6, HCV core peptide 40 (hepatitis C virus, N-terminal biotin; C-terminal amide)
T6 construct: range 79-93
Description: as §1

HCV core peptide 87 = HCV core peptide 87 (hepatitis C virus, N-terminal biotin; C-terminal amide)
Description: as §1

HCV core peptide 69 = HCV core peptide 69 (hepatitis C virus, N-terminal biotin; C-terminal amide)
Description: as §1

HCV core peptide 72 = target: T7, HCV core peptide 72 (hepatitis C virus, N-terminal biotin; C-terminal amide)
T7 construct: range 143-157
Description: as §1

HCV core peptide 71 = HCV core peptide 71 (hepatitis C virus, N-terminal biotin; C-terminal amide)
Description: as §1

HCV core peptide 44 = HCV core peptide 44 (hepatitis C virus, N-terminal biotin; C-terminal amide)
Description: as §1

HCV core peptide 81 = target: T8, HCV core peptide 81 (hepatitis C virus, N-terminal biotin; C-terminal amide)
T8 construct: range 161-175
Description: as §1

HCV core peptide 8 = target: T9, HCV core peptide 8 (hepatitis C virus, N-terminal biotin; C-terminal amide)
T9 construct: range 15-29
Description: as §1

HCV core peptide 14 = target: T10, HCV core peptide 14 (hepatitis C virus, N-terminal biotin; C-terminal amide)
T10 construct: range 27-41
Description: as §1

HCV core peptide 9 = target: T11, HCV core peptide 9 (hepatitis C virus, N-terminal biotin; C-terminal amide)
T11 construct: range 17-31
Description: as §1

HCV core peptide 83 = target: T12, HCV core peptide 83 (hepatitis C virus, N-terminal biotin; C-terminal amide)
T12 construct: range 165-179
Description: as §1

HCV core peptide 53 = target: T13, HCV core peptide 53 (hepatitis C virus, HELM PEPTIDE1{[O=C1N[C@H]2[C@H](CS[C@H]2CCCCC(=O)[*:2])N1].S.G.S.G.P.S.W.G.P.T.D.P.R.R.R.S.R.N.L.[am]}$$$$V2.0; SMILES …)
T13 peptide: SGSGPSWGPTDPRRRSRNL
Description: as §1

HCV core peptide 3 = target: T14, HCV core peptide 3 (hepatitis C virus, N-terminal biotin; C-terminal amide)
T14 construct: range 5-19
Description: as §1

HCV core peptide 2 = target: T15, HCV core peptide 2 (hepatitis C virus, N-terminal biotin; C-terminal amide)
T15 construct: range 3-17
Description: as §1

HCV core peptide 52 = target: T16, HCV core peptide 52 (hepatitis C virus, HELM PEPTIDE1{[O=C1N[C@H]2[C@H](CS[C@H]2CCCCC(=O)[*:2])N1].S.G.S.G.S.R.P.S.W.G.P.T.D.P.R.R.R.S.R.[am]}$$$$V2.0; SMILES …)
T16 peptide: SGSGSRPSWGPTDPRRRSR
Description: as §1

HCV core peptide 28 = target: T17, HCV core peptide 28 (hepatitis C virus, N-terminal biotin; C-terminal amide)
T17 construct: range 55-69
Description: as §1

HCV core peptide 64 = HCV core peptide 64 (hepatitis C virus, N-terminal biotin; C-terminal amide)
Description: as §1

HCV core peptide 12 = target: T18, HCV core peptide 12 (hepatitis C virus, N-terminal biotin; C-terminal amide)
T18 construct: range 23-37
Description: as §1

HCV core peptide 20 = target: T19, HCV core peptide 20 (hepatitis C virus, N-terminal biotin; C-terminal amide)
T19 construct: range 39-53
Description: as §1

HCV core peptide 1 = target: T20, HCV core peptide 1 (hepatitis C virus, N-terminal biotin; C-terminal amide)
T20 construct: range 1-15
Description: as §1

HCV core peptide 82 = target: T21, HCV core peptide 82 (hepatitis C virus, N-terminal biotin; C-terminal amide)
T21 construct: range 163-177
Description: as §1

HCV core peptide 46 = HCV core peptide 46 (hepatitis C virus, N-terminal biotin; C-terminal amide)
Description: as §1

HCV core peptide 58 = HCV core peptide 58 (hepatitis C virus, N-terminal biotin; C-terminal amide)
Description: as §1

HCV core peptide 36 = target: T22, HCV core peptide 36 (hepatitis C virus, N-terminal biotin; C-terminal amide)
T22 construct: range 71-85
Description: as §1

HCV core peptide 24 = target: T23, HCV core peptide 24 (hepatitis C virus, N-terminal biotin; C-terminal amide)
T23 construct: range 47-61
Description: as §1

B1: Neo4 mouse monoclonal antibody (antibody, V domains shown)
VH: QIQLKESGPAVIKPSQSLSLTCIVSGFSITSSVYCWQWIRQPPGKGLEWMGRICYDGSVDYSPSITSRGTISRDTSLNKVFFQLSSVTNEDTAMYYCSRENHIDYYDTTYPSFDVWGAGTTVTVSS
VL: DIVLTQSPASLIVSLGQRATISCRASKSVNEYGYTYMHWYQQKPGLPPKLLIYLASNLDSGVPARFSGSGSGTDFTLNIHPVEEEDAATYYCQHSRELPYTFGGGTKLEIKR
notes: Mouse hybridoma antibody, isotype IgG1, purified with Protein G; also called HCV Neo4
Q: B1 was tested. Which “OD (A492 nm)” value (HCV core peptide 34) did it give?
A: 0.04 OD

Q: And the “OD (A492 nm)” value (HCV core peptide 75)?
A: 0.1 OD

Q: What about the “OD (A492 nm)” value (HCV core peptide 68) of the same binder?
A: 0.04 OD

Q: And the “OD (A492 nm)” value (HCV core peptide 61)?
A: 0.05 OD

Q: And the “OD (A492 nm)” value (HCV core peptide 70)?
A: 0.04 OD

Q: What about the “OD (A492 nm)” value (HCV core peptide 54) of the same binder?
A: 1.01 OD

Q: And the “OD (A492 nm)” value (HCV core peptide 86)?
A: 0.05 OD

Q: And the “OD (A492 nm)” value (HCV core peptide 40)?
A: 0.05 OD

Q: What about the “OD (A492 nm)” value (HCV core peptide 87) of the same binder?
A: 0.05 OD

Q: And the “OD (A492 nm)” value (HCV core peptide 69)?
A: 0.05 OD

Q: And the “OD (A492 nm)” value (HCV core peptide 72)?
A: 0.04 OD

Q: And the “OD (A492 nm)” value (HCV core peptide 71)?
A: 0.05 OD

Q: And the “OD (A492 nm)” value (HCV core peptide 44)?
A: 0.05 OD

Q: What about the “OD (A492 nm)” value (HCV core peptide 81) of the same binder?
A: 0.04 OD

Q: And the “OD (A492 nm)” value (HCV core peptide 8)?
A: 0.06 OD

Q: What about the “OD (A492 nm)” value (HCV core peptide 14) of the same binder?
A: 0.06 OD

Q: What about the “OD (A492 nm)” value (HCV core peptide 9) of the same binder?
A: 0.05 OD

Q: And the “OD (A492 nm)” value (HCV core peptide 83)?
A: 0.05 OD

Q: What about the “OD (A492 nm)” value (HCV core peptide 53) of the same binder?
A: 0.96 OD

Q: What about the “OD (A492 nm)” value (HCV core peptide 3) of the same binder?
A: 0.05 OD

Q: What about the “OD (A492 nm)” value (HCV core peptide 2) of the same binder?
A: 0.06 OD

Q: What about the “OD (A492 nm)” value (HCV core peptide 52) of the same binder?
A: 0.93 OD

Q: And the “OD (A492 nm)” value (HCV core peptide 28)?
A: 0.04 OD

Q: What about the “OD (A492 nm)” value (HCV core peptide 64) of the same binder?
A: 0.04 OD

Q: What about the “OD (A492 nm)” value (HCV core peptide 12) of the same binder?
A: 0.07 OD

Q: What about the “OD (A492 nm)” value (HCV core peptide 20) of the same binder?
A: 0.05 OD

Q: What about the “OD (A492 nm)” value (HCV core peptide 1) of the same binder?
A: 0.06 OD

Q: What about the “OD (A492 nm)” value (HCV core peptide 82) of the same binder?
A: 0.04 OD

Q: What about the “OD (A492 nm)” value (HCV core peptide 46) of the same binder?
A: 0.06 OD

Q: What about the “OD (A492 nm)” value (HCV core peptide 58) of the same binder?
A: 0.05 OD

Q: What about the “OD (A492 nm)” value (HCV core peptide 36) of the same binder?
A: 0.05 OD

Q: And the “OD (A492 nm)” value (HCV core peptide 24)?
A: 0.05 OD
